Laboratory results reported in article PMC4136804.

Assays:
[1] = biological target: GST-tagged SUMO-2(x3); experiment: pull-down; as the plate assay, equal cpm of radiolabeled protein per well, eluted protein counted by liquid scintillation; mean of three experiments, compared with GST alone
[2] = biological target: GST-tagged SUMO-2 (UniProt P61956); experiment: as above

Sequence of GST-tagged SUMO-2(x3) (main, as listed by the source): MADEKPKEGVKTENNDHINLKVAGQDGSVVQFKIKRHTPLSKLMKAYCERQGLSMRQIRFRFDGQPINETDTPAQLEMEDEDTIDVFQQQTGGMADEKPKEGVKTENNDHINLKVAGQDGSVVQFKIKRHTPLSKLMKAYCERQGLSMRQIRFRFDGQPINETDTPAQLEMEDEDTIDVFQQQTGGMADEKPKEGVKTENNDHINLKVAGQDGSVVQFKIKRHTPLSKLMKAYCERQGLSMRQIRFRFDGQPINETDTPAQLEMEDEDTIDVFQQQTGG
Sequence of pyruvate kinase fused with a single MYM-type zinc finger of ZNF261 (domain or fragment) (Q14202 327-738): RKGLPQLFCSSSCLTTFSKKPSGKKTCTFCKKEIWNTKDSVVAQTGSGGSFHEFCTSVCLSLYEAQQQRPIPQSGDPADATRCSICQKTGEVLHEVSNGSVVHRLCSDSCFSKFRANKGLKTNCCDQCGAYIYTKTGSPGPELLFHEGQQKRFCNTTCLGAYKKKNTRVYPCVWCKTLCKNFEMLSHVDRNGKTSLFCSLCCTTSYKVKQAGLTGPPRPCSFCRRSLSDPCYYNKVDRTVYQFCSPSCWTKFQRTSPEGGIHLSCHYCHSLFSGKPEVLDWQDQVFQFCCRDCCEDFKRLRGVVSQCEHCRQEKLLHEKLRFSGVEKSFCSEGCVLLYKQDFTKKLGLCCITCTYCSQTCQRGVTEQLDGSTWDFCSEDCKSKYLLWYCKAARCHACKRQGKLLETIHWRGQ
Sequence of pyruvate kinase fused with the first two MYM-type zinc fingers of ZNF261 (domain or fragment) (Q14202 327-738): as above

| Substance | fold increase in binding compared to GST alone [1] [fold] | fold increase in binding compared to GST alone [2] [fold] | fold increase in binding over the single-finger fusion [1] [fold] | fold increase in binding over the single-finger fusion [2] [fold] |
| --- | --- | --- | --- | --- |
| pyruvate kinase fused with a single MYM-type zinc finger of ZNF261 (domain or fragment) | 3 | 1.5 |  |  |
| pyruvate kinase fused with the first two MYM-type zinc fingers of ZNF261 (domain or fragment) |  |  | > 2 | > 2 |
